From patent US20260275311, “CRISPR NUCLEASE POLYPEPTIDES AND GENE EDITING SYSTEMS COMPRISING SUCH” (ARBOR BIOTECHNOLOGIES, INC., published 2026)
Positions count from the first letter of the chain named.

How the values were obtained:
Assay in all cases: cell_activity
Conditions in all cases: PAM TTAAA; HEK293T
Nuclease M E401R E401R = test system: T1, Nuclease M E401R E401R
T1 sequence: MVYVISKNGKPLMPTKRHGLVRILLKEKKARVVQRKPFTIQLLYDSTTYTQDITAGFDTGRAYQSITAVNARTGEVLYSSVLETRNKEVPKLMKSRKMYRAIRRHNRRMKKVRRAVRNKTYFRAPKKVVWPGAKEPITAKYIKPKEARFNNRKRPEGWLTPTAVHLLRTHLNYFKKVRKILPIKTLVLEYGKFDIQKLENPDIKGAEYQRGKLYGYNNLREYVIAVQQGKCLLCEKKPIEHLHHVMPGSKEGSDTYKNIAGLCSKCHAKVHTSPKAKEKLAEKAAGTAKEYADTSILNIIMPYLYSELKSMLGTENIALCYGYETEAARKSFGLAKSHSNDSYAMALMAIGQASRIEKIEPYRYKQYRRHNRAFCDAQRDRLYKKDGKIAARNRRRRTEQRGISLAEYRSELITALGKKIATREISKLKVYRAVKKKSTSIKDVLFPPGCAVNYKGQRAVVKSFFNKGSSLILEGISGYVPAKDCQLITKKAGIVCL

Nuclease M L92R L92R = test system: T2, Nuclease M L92R L92R
T2 sequence: T1 sequence with L92R, R401E

Nuclease M E83R E83R = test system: T3, Nuclease M E83R E83R
T3 sequence: T1 sequence with E83R, R401E

Nuclease M P481R P481R = test system: T4, Nuclease M P481R P481R
T4 sequence: T1 sequence with R401E, P481R

Nuclease M E88R E88R = test system: T5, Nuclease M E88R E88R
T5 sequence: T1 sequence with E88R, R401E

Nuclease M S95R S95R = test system: T6, Nuclease M S95R S95R
T6 sequence: T1 sequence with S95R, R401E

Sequence: GAGCCUGGUCCAUGGAGAGUGUCAACUACCCCCGUCUAAAGACGGAGGCAUGAGGUUUCGUAACCAAGUGUUGUACCUGCGGGUACAGUAGUUGAACAGGCGGCGAUGCGGCUGGGCACUCCAGGAUGCCACUCCCAGUCCCGGACACUGCCGACGAGCCGCAUCAAGCCGGGGGAGACCAACCGGCUAACGAUAGCCGAGCAAUUACCUAAAAAGAGGUGCAAAGGAAAUGGUAU / GAGCCTGGTCCATGGAGAGT / ACTCTCCATGGACCAGGCTC [Nuclease M VEGFA-T5 guide ; Nuclease M VEGFA-T5 target]
- binding signal (fold vs Nuclease M) (Nuclease M E401R E401R): 1.77
- binding signal (fold vs Nuclease M) (Nuclease M L92R L92R): 1.81
- binding signal (fold vs Nuclease M) (Nuclease M E83R E83R): 1.71
- binding signal (fold vs Nuclease M) (Nuclease M P481R P481R): 1.6
- binding signal (fold vs Nuclease M) (Nuclease M E88R E88R): 2.09
- binding signal (fold vs Nuclease M) (Nuclease M S95R S95R): 2.05
